The experiment addresses Epidermal Growth Factor Receptor (EGFR) (human, UniProt P00533 25-1210). In words: cell-based or functional assay.

B1: EPI1022-1 (Duligotuzumab/Mav2) (bispecific antibody, human IgG1, kappa)
heavy: not shown
light: DIQMTQSPSSLSASVGDRVTITCRASQNIATDVAWYQQKPGKAPKLLIYSASFLYSGVPSRFSGSGSGTDFTLTISSLQPEDFATYYCQQSEPEPYTFGQGTKVEIKRTVAAPSVFIFPPSDEQLKSGTASVVCLLNNFYPREAKVQWKVDNALQSGNSQESVTEQDSKDSTYSLSSTLTLSKADYEKHKVYACEVTHQGLSSPVTKSFNRGEC
chain: not shown
For B1, the “EGFR cell surface removal (percent; flow cytometry with a labeled anti-EGFR antibody after 24 hours at 50 nM)” value is 75.1%.

B2: EPI1527-1 (Duligotuzumab/EgB4) (bispecific antibody, human IgG1, kappa)
heavy: not shown
light: B1 light
chain: not shown
With B2, the “EGFR cell surface removal (percent; flow cytometry with a labeled anti-EGFR antibody after 24 hours at 50 nM)” value was found to be 78.6%.

B3: EPI873 (hu15G11v5/Mav2) (bispecific antibody, human IgG1, kappa)
heavy: not shown
light: DIQMTQSPSSLSASVGDRVTITCRASDNLYSNLAWYQQKPGKSPKLLVYDATNLADGVPSRFSGSGSGTDYTLTISSLQPEDFATYYCQHFWGTPLTFGQGTKVEIKRTVAAPSVFIFPPSDEQLKSGTASVVCLLNNFYPREAKVQWKVDNALQSGNSQESVTEQDSKDSTYSLSSTLTLSKADYEKHKVYACEVTHQGLSSPVTKSFNRGEC
chain: not shown
As for B3, the “EGFR cell surface removal (percent; flow cytometry with a labeled anti-EGFR antibody after 24 hours at 50 nM)” value amounted to 76.4%.

B4: EPI1556-1 (hu15G11v5/EgB4) (bispecific antibody, human IgG1, kappa)
heavy: not shown
light: B3 light
chain: not shown
B4: the “EGFR cell surface removal (percent; flow cytometry with a labeled anti-EGFR antibody after 24 hours at 50 nM)” value was 69.2%.

The values are drawn from US20250388682A1 (EPIBIOLOGICS, published 2025).
